Here are results for 6 molecules from US20240101645A1 (HENRY M JACKSON FOUNDATION FOR THE ADVANCEMENT OF MILITARY …, published 2024).

Assay [1] deals with T1, MERS-CoV spike antigens (bead panel) (MERS-CoV, UniProt K9N5Q8 18-1296).
T1 sequence: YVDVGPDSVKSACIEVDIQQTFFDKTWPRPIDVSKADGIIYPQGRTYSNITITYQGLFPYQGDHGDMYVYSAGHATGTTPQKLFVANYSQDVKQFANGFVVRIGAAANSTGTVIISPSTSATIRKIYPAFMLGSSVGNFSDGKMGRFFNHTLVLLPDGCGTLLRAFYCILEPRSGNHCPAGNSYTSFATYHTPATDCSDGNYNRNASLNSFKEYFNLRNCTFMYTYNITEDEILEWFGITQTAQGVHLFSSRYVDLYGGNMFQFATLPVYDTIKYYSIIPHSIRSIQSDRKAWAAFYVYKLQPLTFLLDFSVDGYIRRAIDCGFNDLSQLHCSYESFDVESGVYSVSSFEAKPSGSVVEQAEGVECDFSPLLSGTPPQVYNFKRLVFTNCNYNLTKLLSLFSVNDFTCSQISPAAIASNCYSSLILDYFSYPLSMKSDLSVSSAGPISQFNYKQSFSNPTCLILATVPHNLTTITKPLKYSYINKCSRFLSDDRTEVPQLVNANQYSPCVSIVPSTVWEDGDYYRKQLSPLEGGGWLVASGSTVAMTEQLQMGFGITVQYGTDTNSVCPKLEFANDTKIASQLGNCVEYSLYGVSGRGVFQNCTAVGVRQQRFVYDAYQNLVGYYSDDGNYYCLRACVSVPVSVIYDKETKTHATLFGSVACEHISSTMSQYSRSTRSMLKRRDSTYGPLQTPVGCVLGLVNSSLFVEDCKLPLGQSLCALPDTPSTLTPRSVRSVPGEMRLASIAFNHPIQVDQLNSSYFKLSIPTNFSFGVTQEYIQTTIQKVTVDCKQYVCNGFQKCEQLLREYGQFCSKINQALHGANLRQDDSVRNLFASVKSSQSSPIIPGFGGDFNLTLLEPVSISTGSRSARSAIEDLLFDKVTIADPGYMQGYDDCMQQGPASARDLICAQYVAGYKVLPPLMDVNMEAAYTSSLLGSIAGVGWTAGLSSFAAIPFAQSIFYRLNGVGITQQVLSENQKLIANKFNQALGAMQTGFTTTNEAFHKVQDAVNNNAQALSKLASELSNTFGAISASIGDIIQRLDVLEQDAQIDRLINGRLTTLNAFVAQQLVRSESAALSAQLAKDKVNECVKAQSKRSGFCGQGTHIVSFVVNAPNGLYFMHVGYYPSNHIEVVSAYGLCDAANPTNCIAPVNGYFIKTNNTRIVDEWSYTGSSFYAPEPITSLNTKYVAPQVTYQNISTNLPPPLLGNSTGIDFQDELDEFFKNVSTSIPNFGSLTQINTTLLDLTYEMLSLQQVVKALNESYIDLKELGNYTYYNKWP
Nature of the assay: multiplex bead assay.

Assay [2] deals with T2, HCoV-229E spike antigens (bead panel) (HCoV-229E, UniProt P15423 16-1115).
T2 sequence: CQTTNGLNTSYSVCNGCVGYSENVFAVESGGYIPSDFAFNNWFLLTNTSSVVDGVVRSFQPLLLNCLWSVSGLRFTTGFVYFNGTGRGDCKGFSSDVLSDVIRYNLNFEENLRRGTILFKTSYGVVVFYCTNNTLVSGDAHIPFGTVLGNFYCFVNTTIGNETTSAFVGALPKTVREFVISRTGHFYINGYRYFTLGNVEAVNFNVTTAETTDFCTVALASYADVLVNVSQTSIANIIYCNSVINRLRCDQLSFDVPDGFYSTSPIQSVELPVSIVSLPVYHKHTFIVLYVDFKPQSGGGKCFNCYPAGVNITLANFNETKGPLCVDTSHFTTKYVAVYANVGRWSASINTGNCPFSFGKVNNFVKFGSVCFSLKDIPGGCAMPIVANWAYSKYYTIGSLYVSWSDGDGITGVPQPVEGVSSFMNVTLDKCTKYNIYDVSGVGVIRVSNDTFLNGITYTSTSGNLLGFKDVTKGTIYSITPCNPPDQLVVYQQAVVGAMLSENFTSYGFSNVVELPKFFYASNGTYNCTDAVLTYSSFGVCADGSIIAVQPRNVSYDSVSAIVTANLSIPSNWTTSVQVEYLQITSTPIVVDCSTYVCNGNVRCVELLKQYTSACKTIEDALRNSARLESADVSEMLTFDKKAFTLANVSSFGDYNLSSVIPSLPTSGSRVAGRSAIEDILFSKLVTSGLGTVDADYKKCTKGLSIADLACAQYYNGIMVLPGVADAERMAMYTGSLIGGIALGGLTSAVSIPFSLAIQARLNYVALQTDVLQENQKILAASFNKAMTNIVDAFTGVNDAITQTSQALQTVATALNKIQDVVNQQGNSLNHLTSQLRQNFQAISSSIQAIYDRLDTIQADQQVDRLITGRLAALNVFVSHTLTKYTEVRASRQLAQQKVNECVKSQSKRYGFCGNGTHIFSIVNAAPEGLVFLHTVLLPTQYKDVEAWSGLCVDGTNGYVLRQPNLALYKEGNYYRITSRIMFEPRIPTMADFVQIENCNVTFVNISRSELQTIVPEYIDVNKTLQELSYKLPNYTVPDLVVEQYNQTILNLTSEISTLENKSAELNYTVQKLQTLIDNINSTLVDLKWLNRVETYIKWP
Nature of the assay: multiplex bead assay.

Assay [3] deals with T3, HCoV-HKU1 spike antigens (bead panel) (HCoV-HKU1, UniProt Q5MQD0 13-1300).
T3 sequence: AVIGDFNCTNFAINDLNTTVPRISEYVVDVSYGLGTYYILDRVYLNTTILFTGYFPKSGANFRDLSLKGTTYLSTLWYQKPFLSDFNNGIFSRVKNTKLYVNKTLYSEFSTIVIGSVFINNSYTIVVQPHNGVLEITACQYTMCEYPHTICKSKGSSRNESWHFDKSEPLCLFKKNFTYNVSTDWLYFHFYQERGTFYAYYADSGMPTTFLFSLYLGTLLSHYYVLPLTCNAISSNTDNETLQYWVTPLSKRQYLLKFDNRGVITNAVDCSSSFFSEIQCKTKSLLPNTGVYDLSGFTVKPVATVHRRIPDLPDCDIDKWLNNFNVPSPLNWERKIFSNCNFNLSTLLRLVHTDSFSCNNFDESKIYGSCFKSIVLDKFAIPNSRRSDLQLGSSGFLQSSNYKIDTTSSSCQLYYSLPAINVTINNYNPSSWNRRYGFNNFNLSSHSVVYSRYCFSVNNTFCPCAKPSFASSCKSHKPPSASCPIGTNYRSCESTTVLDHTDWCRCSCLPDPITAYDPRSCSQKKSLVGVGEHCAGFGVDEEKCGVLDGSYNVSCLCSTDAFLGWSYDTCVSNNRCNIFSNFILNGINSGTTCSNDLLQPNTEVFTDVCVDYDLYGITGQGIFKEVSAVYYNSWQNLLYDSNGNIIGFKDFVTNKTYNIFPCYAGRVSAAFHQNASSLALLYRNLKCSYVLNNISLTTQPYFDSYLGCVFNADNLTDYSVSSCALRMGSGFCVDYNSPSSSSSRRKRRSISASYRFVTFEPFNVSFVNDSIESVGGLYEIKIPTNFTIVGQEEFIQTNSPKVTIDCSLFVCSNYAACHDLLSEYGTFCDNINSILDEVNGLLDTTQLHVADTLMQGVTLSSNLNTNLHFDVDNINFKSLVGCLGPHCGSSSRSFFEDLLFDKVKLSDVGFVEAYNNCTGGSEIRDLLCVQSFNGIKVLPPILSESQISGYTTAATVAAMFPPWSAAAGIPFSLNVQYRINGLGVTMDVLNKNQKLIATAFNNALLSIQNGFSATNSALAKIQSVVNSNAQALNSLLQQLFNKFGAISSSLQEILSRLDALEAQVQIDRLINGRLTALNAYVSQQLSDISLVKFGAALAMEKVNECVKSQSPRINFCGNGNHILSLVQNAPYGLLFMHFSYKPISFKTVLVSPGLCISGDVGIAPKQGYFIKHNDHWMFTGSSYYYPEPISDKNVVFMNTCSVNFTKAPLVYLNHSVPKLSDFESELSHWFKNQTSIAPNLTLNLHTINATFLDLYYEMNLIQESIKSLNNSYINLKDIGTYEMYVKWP
Nature of the assay: multiplex bead assay.

For assay [4], the target named is SARS-CoV-2 S on pseudovirions (Wuhan Hu-1 / IL1/2020, last 18 amino acids removed) (SARS-CoV-2, UniProt P0DTC2 14-1273). Nature of the assay: cell-based or functional assay.
For assay [5], the target named is SARS-CoV-1 spike antigens (bead panel) (SARS-CoV-1, UniProt P59594 14-1195). Briefly: multiplex bead assay.

B1: COV_1131 (antibody, V domains shown)
VH: QVQLQESGPGLVKPSETLSLTCSVSGGSISSYYWSWIRQPPGKGLEWIGYISYSGSTNYNPSLKSRVTISVDTSKNQFSLKLSSVTAADTAVYYCARLGFGGIYPSLYDAFDIWGQGTMVTVSS
VL: DIQMTQSPSSLSASVGDRVTITCRASQTISSYLNWYQQKPGKAPNLLIYDASSLQRGVPSRFSGSGSGTDFTLTISSLQPEDFATYYCQQSYSTPRTFGQGTKVEIKR
notes: human IgG1
Regarding B1, the binding result in assay [1], in assay [2] and in assay [3] was “no binding” throughout. In assay [4], the “Mean IC50, pSV neutralization” value is at least 25 µg/ml. For the same molecule, the “Mean IC80, pSV neutralization” value in assay [4] is at least 25 µg/ml.

B2: COV_1063 (antibody, V domains shown)
VH: EEKLVESGGDLVQPGGSLRISCEVSGFSLSKYWMNWVRQAPGKGLQWVANIEEDGSERNYADSVKGRFTISRDNARNSLYLQMNSLRVEDTAVYLCTAGHYAGPWGWGQGTLVTVSS
VL: DIQMTQSPSSLSASVGDRVTVTCRASQDIGHYLAWYQQKPGKTPNLLIYDAFNLESGVPPRFGGSGSGTDFTLTISSLQPEDAATYYCQKYDSVPWTFGQGTKVEIKR
notes: human IgG1
As to B2, in assay [5], the binding result was “no binding”. In addition, in assay [4], the “Mean IC50, pSV neutralization” value was at least 25 µg/ml and the “Mean IC80, pSV neutralization” value was at least 25 µg/ml.

B3: COV_2064 (antibody, V domains shown)
VH: EVQLVESGGGLVQPGGSLRLSCTASGFTFNNNWMHWVRQVPGKGLVWVSRINTDESSTSYADSVKGRFIISRDNAKNTLYLQMNSLRVEDTAVYYCARSTAQYDIWTGYYYYMDVWGKGTTVTVSS
VL: DIQMTQSPSTLSASVGDRVTISCRASQSISTWLAWYQQKPGKAPNLLIYGASNLGSGVPSRFSGGGSGTEFTLTISSLQSDDFATYYCQRYNSFPYTFGQGTKLEIKR
notes: human IgG1
With B3, the binding result in assay [1], in assay [2] and in assay [3] was “no binding” in each case. Besides, in assay [4], the “Mean IC50, pSV neutralization” value is at least 25 µg/ml. In addition, the “Mean IC80, pSV neutralization” value in assay [4] is at least 25 µg/ml.

B4: COV_1032 (antibody, V domains shown)
VH: QVHLQESGPGLVKPSETLSLTCTVSGGSISSYYWSWIRQPPGKGLEWIGYIYDSGSTNYNPSLKSRVTISVDTSKNQFSLKLSSVTAADTAVYYCARSVRGVTIDYWGQGTLVTVSS
VL: DIQMTQSPSSLSASVGDRVTITCRASQSISNSISSYLNWYQKKPGKAPKLLIYAASSLQSGVPSRFSGSGSGTDFTLTISSLQPEDFATYYCQQSYSTPTTFGQGTKVEIKR
notes: human IgG1
Turning to B4, in assay [1], the binding result is recorded as “no binding”. Further, the binding result in assay [2] is reported as “no binding”. For the same molecule, in assay [4], the “Mean IC50, pSV neutralization” value came to 2.5 µg/ml and the “Mean IC80, pSV neutralization” value is at least 25 µg/ml.

B5: COV_1116 (antibody, V domains shown)
VH: EVQLVESGGGLVKPGGSLRLSCAASGFTFSSYSMNWVRQAPGKGLEWVSSISSSNAYIYSADSVKGRFTISRDNAKNSLYLQMNSLRADDTAVYYCARGGRGLSSSPGRLDYYYGLDVWGQGTTVTVSS
VL: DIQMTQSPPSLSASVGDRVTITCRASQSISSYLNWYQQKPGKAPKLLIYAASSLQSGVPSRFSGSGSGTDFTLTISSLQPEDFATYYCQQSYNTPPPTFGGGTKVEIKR
notes: human IgG1
In the case of B5, the binding result in assay [1], in assay [2] and in assay [3] was “no binding” in each case. In addition, in assay [4], the “Mean IC50, pSV neutralization” value turned out to be 6.99 µg/ml. For the same molecule, the “Mean IC80, pSV neutralization” value in assay [4] is at least 25 µg/ml.

B6: COV_2055 (antibody, V domains shown)
VH: EVQLVESGGGVVQPGRSLRLSCAASGFTLSSYGMHWVRQAPGKGLEWVAVISYEGSNKHYADSVKGRFTISRDNSKNTLYLQMNSLRAEDTAVYYCAKGSTNYFDHWGQGTLVTVSS
VL: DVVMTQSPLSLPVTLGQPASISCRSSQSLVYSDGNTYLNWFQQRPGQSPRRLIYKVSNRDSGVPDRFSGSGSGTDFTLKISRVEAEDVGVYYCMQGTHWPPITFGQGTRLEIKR
notes: human IgG1
On to B6, for which the binding result in assay [1] and in assay [2] was “no binding” in each case.
